# Measured values: paper doi:10.1101/2021.07.29.454247 (bioRxiv, 2021)
# Target: endogenous TRPM2 of mouse brain (mouse (endogenous in brain), UniProt Q91YD4 1-1506)
# Assay: co-IP
# Sequence of endogenous TRPM2 of mouse brain (Q91YD4 whole entry): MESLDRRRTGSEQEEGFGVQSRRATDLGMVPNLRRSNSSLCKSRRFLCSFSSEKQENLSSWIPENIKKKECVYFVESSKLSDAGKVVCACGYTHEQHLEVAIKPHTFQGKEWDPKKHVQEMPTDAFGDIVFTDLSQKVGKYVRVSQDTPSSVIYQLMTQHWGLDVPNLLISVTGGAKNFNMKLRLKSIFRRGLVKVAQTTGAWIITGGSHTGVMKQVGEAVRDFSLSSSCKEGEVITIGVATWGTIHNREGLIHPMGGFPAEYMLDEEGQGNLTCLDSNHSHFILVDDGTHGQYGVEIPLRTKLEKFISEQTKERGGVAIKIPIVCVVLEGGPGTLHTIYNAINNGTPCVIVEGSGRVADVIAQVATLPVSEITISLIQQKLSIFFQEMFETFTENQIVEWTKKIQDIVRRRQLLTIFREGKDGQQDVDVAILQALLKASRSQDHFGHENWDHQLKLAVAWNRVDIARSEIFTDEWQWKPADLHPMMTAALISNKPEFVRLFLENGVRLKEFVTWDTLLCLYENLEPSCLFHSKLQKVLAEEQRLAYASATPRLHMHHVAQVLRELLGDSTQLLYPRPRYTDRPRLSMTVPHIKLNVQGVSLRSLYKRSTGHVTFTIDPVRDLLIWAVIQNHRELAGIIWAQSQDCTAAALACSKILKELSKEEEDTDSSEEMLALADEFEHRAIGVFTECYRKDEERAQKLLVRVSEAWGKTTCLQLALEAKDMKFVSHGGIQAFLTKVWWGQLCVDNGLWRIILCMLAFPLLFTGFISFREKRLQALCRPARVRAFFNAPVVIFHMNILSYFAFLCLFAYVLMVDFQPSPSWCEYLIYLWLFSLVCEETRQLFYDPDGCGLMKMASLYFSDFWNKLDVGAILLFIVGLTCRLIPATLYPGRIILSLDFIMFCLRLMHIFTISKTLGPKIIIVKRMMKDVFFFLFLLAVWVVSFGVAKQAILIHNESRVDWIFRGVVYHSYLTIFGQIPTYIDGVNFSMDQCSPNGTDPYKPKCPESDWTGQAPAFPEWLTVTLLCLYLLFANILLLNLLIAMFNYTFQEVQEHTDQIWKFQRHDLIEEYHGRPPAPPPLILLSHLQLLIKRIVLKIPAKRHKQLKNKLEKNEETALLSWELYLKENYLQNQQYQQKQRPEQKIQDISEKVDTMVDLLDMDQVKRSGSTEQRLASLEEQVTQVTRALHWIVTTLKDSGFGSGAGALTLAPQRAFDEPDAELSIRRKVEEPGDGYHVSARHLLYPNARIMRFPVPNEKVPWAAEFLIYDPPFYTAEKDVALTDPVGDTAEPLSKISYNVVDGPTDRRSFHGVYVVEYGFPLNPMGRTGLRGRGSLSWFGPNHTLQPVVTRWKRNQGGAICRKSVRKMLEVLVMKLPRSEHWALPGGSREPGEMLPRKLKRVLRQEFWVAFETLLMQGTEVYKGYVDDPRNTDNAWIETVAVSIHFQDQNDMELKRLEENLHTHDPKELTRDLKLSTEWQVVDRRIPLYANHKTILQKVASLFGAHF
binder,measurement,value
endogenous PKCγ of mouse brain and neurons (enzyme) not shown,"fold of PKCγ pulled down by anti-TRPM2, MCAO against sham",~1.5 fold
